Results: US12467929
Each block holds one substance with its values, some of them ahead of it.

Experiments:
[1] = target: recombinant UBE3A protein (Homo sapiens (Human)) (UniProt Q05086); experiment: Simoa; capture GTX; SBG 100 pm; UBE3A 0.160 ng/ml
[2] = target: recombinant UBE3A protein (Homo sapiens (Human)) (UniProt Q05086); experiment: Simoa; capture GTX; SBG 150 pm; UBE3A 0.0320 ng/ml
[3] = target: recombinant UBE3A protein (Homo sapiens (Human)) (UniProt Q05086); experiment: Simoa; capture GTX; 3E5 0.1 ug/ml; UBE3A 4.00 ng/ml
[4] = target: recombinant UBE3A protein (Homo sapiens (Human)) (UniProt Q05086); experiment: Simoa; capture GTX; 3E5 0.4 ug/ml; UBE3A 20.0 ng/ml
[5] = target: recombinant UBE3A protein (Homo sapiens (Human)) (UniProt Q05086); experiment: Simoa; capture GTX; 3E5 0.8 ug/ml; UBE3A 4.00 ng/ml
[6] = target: recombinant UBE3A protein (Homo sapiens (Human)) (UniProt Q05086); experiment: Simoa; capture GTX; SBG 100 pm; UBE3A 0.00128 ng/ml
[7] = target: recombinant UBE3A protein (Homo sapiens (Human)) (UniProt Q05086); experiment: Simoa; capture GTX; 3E5 0.8 ug/ml; UBE3A 0.160 ng/ml
[8] = target: recombinant UBE3A protein (Homo sapiens (Human)) (UniProt Q05086); experiment: Simoa; capture GTX; 3E5 0.2 ug/ml; UBE3A 0.0320 ng/ml
[9] = target: recombinant UBE3A protein (Homo sapiens (Human)) (UniProt Q05086); experiment: Simoa head-to-head, Table 11; capture GTX; UBE3A 100 ng/ml
[10] = target: recombinant UBE3A protein (Homo sapiens (Human)) (UniProt Q05086); experiment: Simoa head-to-head, Table 10; capture MS 2F6; UBE3A 500 ng/ml
[11] = target: recombinant UBE3A protein (Homo sapiens (Human)) (UniProt Q05086); experiment: Simoa head-to-head, Table 11; capture MS 2F6; UBE3A 0.16 ng/ml
[12] = target: recombinant UBE3A protein (Homo sapiens (Human)) (UniProt Q05086); experiment: Simoa; capture GTX + helper beads; 3E5 0.1 ug/ml; UBE3A 20.0 ng/ml
[13] = target: recombinant UBE3A protein (Homo sapiens (Human)) (UniProt Q05086); experiment: Simoa; capture GTX, no helper beads; 3E5 0.2 ug/ml; UBE3A 4.00 ng/ml
[14] = target: recombinant UBE3A protein (Homo sapiens (Human)) (UniProt Q05086); experiment: Simoa; capture GTX, no helper beads; 3E5 0.1 ug/ml; UBE3A 0.800 ng/ml
[15] = target: recombinant UBE3A protein (Homo sapiens (Human)) (UniProt Q05086); experiment: Simoa; capture GTX, no helper beads; 3E5 0.4 ug/ml; UBE3A 0.800 ng/ml
[16] = target: recombinant UBE3A protein (Homo sapiens (Human)) (UniProt Q05086); experiment: Simoa; capture GTX, no helper beads; 3E5 0.1 ug/ml; UBE3A 0.0320 ng/ml
[17] = target: recombinant UBE3A protein (Homo sapiens (Human)) (UniProt Q05086); experiment: Simoa; capture GTX, no helper beads; 3E5 0.4 ug/ml; UBE3A 0.00128 ng/ml
[18] = target: recombinant UBE3A protein (Homo sapiens (Human)) (UniProt Q05086); experiment: 2-step Simoa; capture GTX; UBE3A 125 ng/ml
[19] = target: recombinant UBE3A protein (Homo sapiens (Human)) (UniProt Q05086); experiment: 2-step Simoa; capture GTX; UBE3A 500 ng/ml
[20] = target: recombinant UBE3A protein (Homo sapiens (Human)) (UniProt Q05086); experiment: 3-step Simoa; capture GTX; UBE3A 1.95 ng/ml

UniProt Q05086, sequence (Q05086 whole entry): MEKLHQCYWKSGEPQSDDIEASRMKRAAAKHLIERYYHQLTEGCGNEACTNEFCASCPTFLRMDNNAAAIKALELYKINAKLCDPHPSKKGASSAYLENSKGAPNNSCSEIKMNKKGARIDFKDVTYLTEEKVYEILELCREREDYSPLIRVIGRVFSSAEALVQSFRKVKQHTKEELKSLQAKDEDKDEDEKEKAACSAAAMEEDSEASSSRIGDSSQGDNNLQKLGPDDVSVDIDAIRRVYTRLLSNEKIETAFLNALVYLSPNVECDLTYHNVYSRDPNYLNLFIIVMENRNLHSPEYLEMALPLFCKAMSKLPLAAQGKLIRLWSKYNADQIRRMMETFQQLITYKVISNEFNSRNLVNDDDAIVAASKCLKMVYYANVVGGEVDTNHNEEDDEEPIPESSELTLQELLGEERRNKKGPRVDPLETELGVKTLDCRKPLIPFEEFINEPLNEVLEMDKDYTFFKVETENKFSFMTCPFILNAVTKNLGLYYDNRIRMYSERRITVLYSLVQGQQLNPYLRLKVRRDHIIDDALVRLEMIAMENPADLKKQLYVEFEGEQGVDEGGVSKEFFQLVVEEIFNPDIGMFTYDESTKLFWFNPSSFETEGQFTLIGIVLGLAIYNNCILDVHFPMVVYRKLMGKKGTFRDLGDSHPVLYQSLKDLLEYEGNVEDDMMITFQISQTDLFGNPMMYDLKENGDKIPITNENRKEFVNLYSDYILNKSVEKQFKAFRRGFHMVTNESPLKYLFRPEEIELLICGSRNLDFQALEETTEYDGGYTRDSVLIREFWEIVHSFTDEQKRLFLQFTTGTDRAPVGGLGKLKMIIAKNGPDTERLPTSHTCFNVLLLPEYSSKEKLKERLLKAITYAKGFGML

AEB1 [1]: 0.0582
AEB2 [1]: 0.0586
AEB3 [1]: 0.0574
Average AEB [1]: 0.0581
Signal to Background [1]: 6.93
AEB1 [2]: 0.0262
AEB2 [2]: 0.0285
AEB3 [2]: 0.0282
Average AEB [2]: 0.0276
Signal to Background [2]: 2.08
AEB1 [3]: 0.848
AEB2 [3]: 0.891
AEB3 [3]: 0.878
Average AEB [3]: 0.873
Signal to Background [3]: 45.3
AEB1 [4]: 6.82
AEB2 [4]: 7.9
AEB3 [4]: 7.67
Average AEB [4]: 7.46
Signal to Background [4]: 119
AEB1 [5]: 3.18
AEB2 [5]: 3.38
AEB3 [5]: 3.16
Average AEB [5]: 3.24
Signal to Background [5]: 26.4
AEB1 [6]: 0.0082
AEB2 [6]: 0.0092
AEB3 [6]: 0.0096
Average AEB [6]: 0.009
Signal to Background [6]: 1.07
AEB1 [7]: 0.235
AEB2 [7]: 0.263
AEB3 [7]: 0.226
Average AEB [7]: 0.241
Signal to Background [7]: 1.97
AEB1 [8]: 0.0619
AEB2 [8]: 0.0621
AEB3 [8]: 0.0587
Average AEB [8]: 0.0609
Signal to Background [8]: 1.55
AEB1 [9]: 3.35
AEB2 [9]: 3.51
Ave AEB [9]: 3.43
Signal to Background [9]: 419
AEB1 [10]: 11
AEB2 [10]: 10.9
Ave AEB [10]: 10.9
Signal to Background [10]: 809
AEB1 [11]: 0.0071
AEB2 [11]: 0.0078
Ave AEB [11]: 0.0074
Signal to Background [11]: 1.96
AEB1 [12]: 3.37
AEB2 [12]: 3.48
Average AEB [12]: 3.42
Signal to Background [12]: 597
AEB1 [13]: 0.878
AEB2 [13]: 0.851
Average AEB [13]: 0.864
Signal to Background [13]: 89.4
AEB1 [14]: 0.164
AEB2 [14]: 0.157
Average AEB [14]: 0.16
Signal to Background [14]: 27.9
AEB1 [15]: 0.335
AEB2 [15]: 0.338
Average AEB [15]: 0.337
Signal to Background [15]: 17.2
AEB1 [16]: 0.0108
AEB2 [16]: 0.0159
Average AEB [16]: 0.0133
Signal to Background [16]: 2.33
AEB1 [17]: 0.0195
AEB2 [17]: 0.0213
Average AEB [17]: 0.0204
Signal to Background [17]: 1.04
Substance: anti-UBE3A antibody 3E5 (SAB1404508-100 ug, Millipore-Sigma)

AEB1 [18]: 0.263
AEB2 [18]: 0.241
Ave AEB [18]: 0.252
Signal to Background [18]: 77.1
AEB1 [19]: 0.303
AEB2 [19]: 0.308
Ave AEB [19]: 0.305
Signal to Background [19]: 93.4
AEB1 [20]: 0.0052
AEB2 [20]: 0.0042
Ave AEB [20]: 0.0047
Signal to Background [20]: 1.44
Substance: NB500-240 (Novus) (antibody)
